According to patent US5679770A, “Polypeptide, DNA fragment encoding the same, drug composition containing the same and process for producing the same” (Mochida Pharmaceutical Co., Ltd., priority 1991, dated 1997):

Assays:
[1] = biological target: T1, human trypsin (Homo sapiens, UniProt P07477); assay: Human trypsin-inhibiting activity (synthetic substrate S-2444); type: biochemical; conditions: purified polypeptide, various concentration levels
T1 construct: purchased Calbiochem
Procedure: The purified polypeptide of the present invention was dissolved in 100 μl of distilled water. Concentration of polypeptide in the thus prepared solution was determined based on its bovine trypsin-inhibiting activity measured in accordance with the above procedure (1) using UTI (Mochida Pharmaceutical Co., Ltd.; cf. H. Ohnishi et al., Nippon Yakurigaku Zasshi, vol.85, pp.1-6, 1985) as a standard. The polypeptide solution was then diluted to various concentration levels with 0.03% BSA/0.2M triethanolamine-HCl buffer (pH 7.8) for use in the activity measurement. Separately from this, human trypsin (Calbiochem) was dissolved in 1 mM HCl to a concentration of 1,000 SU/ml and the solution was further diluted with the 0.03% BSA/0.2M triethanolamine-HCl buffer (pH 7.8) to prepare a 1.25 SU/ml solution of human trypsin. Thereafter, human trypsin-inhibiting activity was measured in the same manner as described in the above procedure (1) using the aforementioned synthetic substrate S-2444. Separately from this, polypeptide AN68 (sequence described in Example 17(3)) was diluted to various concentration levels. Thereafter, human trypsin-inhibiting activity was measured in the same manner as described in the above procedure (1) and compared with the trypsin-inhibiting activity of the novel polypeptide of the present invention.

[2] = biological target: T2, human FXa (Homo sapiens, UniProt P00742); assay: FXa-inhibiting activity (synthetic substrate S-2222); type: biochemical; conditions: relative to control AN68; concentration expressed as bovine trypsin-inhibiting activity
T2 construct: purchased American Diagnostica Inc
T2 sequence (P00742 235-488 limits assumed): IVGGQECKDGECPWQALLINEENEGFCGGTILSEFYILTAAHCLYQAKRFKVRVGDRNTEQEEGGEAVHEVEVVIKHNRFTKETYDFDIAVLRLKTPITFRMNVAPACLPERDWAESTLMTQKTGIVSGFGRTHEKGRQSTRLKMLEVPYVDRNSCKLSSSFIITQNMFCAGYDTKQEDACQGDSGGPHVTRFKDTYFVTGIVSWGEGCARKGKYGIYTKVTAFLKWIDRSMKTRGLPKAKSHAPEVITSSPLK
T2 sequence (P00742 41-179 partner limits assumed): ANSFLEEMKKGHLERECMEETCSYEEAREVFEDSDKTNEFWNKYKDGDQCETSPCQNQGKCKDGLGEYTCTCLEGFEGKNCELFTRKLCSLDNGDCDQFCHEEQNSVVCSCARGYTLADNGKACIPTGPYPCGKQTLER
Procedure: The purified polypeptide of the present invention was dissolved in 100 μl of distilled water. Polypeptide concentration of this solution was determined based on its bovine trypsin-inhibiting activity measured in accordance with the above procedure (1) using the aforementioned UTI as a standard. The thus prepared solution was then diluted to various concentration levels with 0.1% BSA/150 mM NaCl/5 mM CaCl2 /50 mM Tris-HCl buffer (pH 8.3) for use in the activity measurement. Separately from this, a polypeptide TN70 (cf. Japanese Patent Application No. 3-325220) and polypeptide AN68 were purified respectively in accordance with the procedure of Example 2(4) from a culture supernatant of E. coli JE5505(pM552) (deposit No., FERM BP-3561) and E. coli JE5505(pM594) obtained by transforming E. coli JE5505 with the aforementioned plasmid pM594 obtained in Example 4. The thus purified polypeptide TN70 and AN68 were diluted to various concentration levels to be used as control solutions.
Using a synthetic compound S-2222 (Daiichi Pure Chemicals Co., Ltd.) as a substrate, FXa-inhibiting activities in the thus prepared test sample solution and control solution were measured in accordance with the method of Ohno et al. (Ohno H. et al., Thromb. Res., vol.19, pp.579-588, 1980) as follows. First, human FXa (American Diagnostica Inc.) was dissolved in distilled water to a final concentration of 10 PEU/ml and the solution was further diluted with the aforementioned 0.1% BSA/150 mM NaCl/5 mM CaCl2 /50 mM Tris-HCl buffer (pH 8.3) to prepare 0.1 PEU/ml of FXa solution. Separately from this, a 4 mM solution of S-2222 was prepared by dissolving it in distilled water and the solution was further diluted with the 0.1% BSA/150 mM NaCl/5 mM CaCl2 /50 mM Tris-HCl buffer (pH 8.3) to obtain a 2 mM solution of S-2222.
Next, 25 μl of the test sample or control solution was mixed with 100 μl of the 0.1% BSA/150 mM NaCl/5 mM CaCl2 /50 mM Tris-HCl buffer (pH 8.3) and 25 μl of the FXa solution. After incubating statically at 37° C. for 10 minutes, 100 μl of the S-2222 solution was added to start the reaction. The reaction was carried out at 37° C. for 30 minutes and then stopped by adding 50 μl of 50% acetic acid solution to the reaction mixture. Thereafter, absorbance at a wavelength of 405 nm was measured using a spectrophotometer. In this instance, in order to eliminate absorbancy of various contents in the reaction mixture other than the reaction product, a blank solution was prepared by mixing 25 μl of the FXa solution with 50 μl of 50% acetic acid and then with 25 μl of each test sample or the control solution, 100 μl of the 0.1% BSA/150 mM NaCl/5 mM CaCl2 /50 mM Tris-HCl buffer (pH 8.3) and with 100 μl of the S-2222 solution.
The results are shown in FIG. 45 to FIG. 53 and FIG. 66. In these figures, polypeptide concentration in the reaction solution was expressed as its bovine trypsin-inhibiting activity. Also, residual human FXa activity was expressed by percentage based on the absorbance of a control reaction mixture in which 25 μl of the 0.1% BSA/150 mM NaCl/5 mM CaCl2 /50 mM Tris-HCl buffer (pH 8.3) was used instead of the test sample.

| Molecule | human trypsin inhibition [1] | FXa-inhibiting activity, times higher than that of polypeptide AN68 [2] |
| --- | --- | --- |
| R11Q/Q19K/Y46D: formula 1 sequence with Gln for position 7 Arg, Lys for position 15 Gln, Asp for position 42 Tyr; SEQ. I.D. NO. 37 (protein) AACNLPIVQGPCRAFIKLWAFDAVKGKCVLFPYGGCQGNGNKFDSEKECREYCGVPGDGDEELLRFSN | can inhibit human trypsin in a concentration-dependent manner | about twenty |
| R11N/Q19K/Y46D: formula 1 sequence with Asn for position 7 Arg, Lys for position 15 Gln, Asp for position 42 Tyr; SEQ. I.D. NO. 41 (protein) AACNLPIVNGPCRAFIKLWAFDAVKGKCVLFPYGGCQGNGNKFDSEKECREYCGVPGDGDEELLRFSN | can inhibit human trypsin in a concentration-dependent manner | about 10 times |
| R11E/Q19K/Y46E: formula 1 sequence with Glu for position 7 Arg, Lys for position 15 Gln, Glu for position 42 Tyr; SEQ. I.D. NO. 40 (protein) AACNLPIVEGPCRAFIKLWAFDAVKGKCVLFPYGGCQGNGNKFESEKECREYCGVPGDGDEELLRFSN | can inhibit human trypsin in a concentration-dependent manner | about 13 times |
| R11L/Q19K/Y46D: formula 1 sequence with Leu for position 7 Arg, Lys for position 15 Gln, Asp for position 42 Tyr; SEQ. I.D. NO. 39 (protein) AACNLPIVLGPCRAFIKLWAFDAVKGKCVLFPYGGCQGNGNKFDSEKECREYCGVPGDGDEELLRFSN | can inhibit human trypsin in a concentration-dependent manner | about 16 times |
| R11S/Q19K/Y46D: formula 1 sequence with Ser for position 7 Arg, Lys for position 15 Gln, Asp for position 42 Tyr; SEQ. I.D. NO. 42 (protein) AACNLPIVSGPCRAFIKLWAFDAVKGKCVLFPYGGCQGNGNKFDSEKECREYCGVPGDGDEELLRFSN | can inhibit human trypsin in a concentration-dependent manner | about 8 times |
| R11A/Q19K/Y46D: formula 1 sequence with Ala for position 7 Arg, Lys for position 15 Gln, Asp for position 42 Tyr; SEQ. I.D. NO. 43 (protein) AACNLPIVAGPCRAFIKLWAFDAVKGKCVLFPYGGCQGNGNKFDSEKECREYCGVPGDGDEELLRFSN | can inhibit human trypsin in a concentration-dependent manner | about 9 times |
| R11D/Q19K/Y46D: formula 1 sequence with Asp for position 7 Arg, Lys for position 15 Gln, Asp for position 42 Tyr; SEQ. I.D. NO. 38 (protein) AACNLPIVDGPCRAFIKLWAFDAVKGKCVLFPYGGCQGNGNKFDSEKECREYCGVPGDGDEELLRFSN | can inhibit human trypsin in a concentration-dependent manner | about 5 times |
